Source: patent US20250197889

B1: Nme1Cas9 (Neisseria meningitidis strain 8013 Cas9), recombinant purified protein (protein)
chain: MAAFKPNSINYILGLDIGIASVGWAMVEIDEEENPIRLIDLGVRVFERAEVPKTGDSLAMARRLARSVRRLTRRRAHRLLRTRRLLKREGVLQAANFDENGLIKSLPNTPWQLRAAALDRKLTPLEWSAVLLHLIKHRGYLSQRKNEGETADKELGALLKGVAGNAHALQTGDFRTPAELALNKFEKESGHIRNQRSDYSHTFSRKDLQAELILLFEKQKEFGNPHVSGGLKEGIETLLMTQRPALSGDAVQKMLGHCTFEPAEPKAAKNTYTAERFIWLTKLNNLRILEQGSERPLTDTERATLMDEPYRKSKLTYAQARKLLGLEDTAFFKGLRYGKDNAEASTLMEMKAYHAISRALEKEGLKDKKSPLNLSPELQDEIGTAFSLFKTDEDITGRLKDRIQPEILEALLKHISFDKFVQISLKALRRIVPLMEQGKRYDEACAEIYGDHYGKKNTEEKIYLPPIPADEIRNPVVLRALSQARKVINGVVRRYGSPARIHIETAREVGKSFKDRKEIEKRQEENRKDREKAAAKFREYFPNFVGEPKSKDILKLRLYEQQHGKCLYSGKEINLGRLNEKGYVEIDHALPFSRTWDDSFNNKVLVLGSENQNKGNQTPYEYFNGKDNSREWQEFKARVETSRFPRSKKQRILLQKFDEDGFKERNLNDTRYVNRFLCQFVADRMRLTGKGKKRVFASNGQITNLLRGFWGLRKVRAENDRHHALDAVVVACSTVAMQQKITRFVRYKEMNAFDGKTIDKETGEVLHQKTHFPQPWEFFAQEVMIRVFGKPDGKPEFEEADTLEKLRTLLAEKLSSRPEAVHEYVTPLFVSRAPNRKMSGQGHMETVKSAKRLDEGVSVLRVPLTQLKLKDLEKMVNREREPKLYEALKARLEAHKDDPAKAFAEPFYKYDKAGNRTQQVKAVRVEQVQKTGVWVRNHNGIADNATMVRVDVFEKGDKYYLVPIYSWQVAKGILPDRAVVQGKDEEDWQLIDDSFNFKFSLHPNDLVEVITKKARMFGYFASCHRGTGNINIRIHDLDHKIGKNGILEGIGVKTALSFQKYQIDELGKEIRPCRLKKRPPVR
With B1 the “in vitro cleavage of a target DNA by Cas9-sgRNA (10:1 Acr:Cas9 molar ratio)” value (from here on “in vitro cleavage … (10:1 Acr:Cas9 molar ratio)”) (AcrIIC2Nme) was “all Arc families inhibited Nme1Cas9”, the “in vitro cleavage … (10:1 Acr:Cas9 molar ratio)” value (AcrIIC1Nme) was “all Arc families inhibited Nme1Cas9” and the “in vitro cleavage … (10:1 Acr:Cas9 molar ratio)” value (AcrIIC4Hpa) was “all Arc families inhibited Nme1Cas9”. For the same protein, the “in vitro cleavage … (10:1 Acr:Cas9 molar ratio)” value (AcrE2) was “AcrE2 failed to do so”, the “in vitro cleavage … (10:1 Acr:Cas9 molar ratio)” value (AcrIIC5Smu) was “all Arc families inhibited Nme1Cas9” and the “in vitro cleavage … (10:1 Acr:Cas9 molar ratio)” value (AcrIIC3Nme) was “all Arc families inhibited Nme1Cas9”.
